Results published in patent US20080242590A1, “New Method 706” (ASTRAZENECA AB, priority 2007, published 2008).

Columns and labels:
[1] = Pharmacokinetics of Fc-Nep and commercial neprilysin, single i.v. dose (Example 20); assay type: in vivo; details: mice, single i.v. dose 1 mg/kg
Protocol: The Fc-Nep fusion protein was developed to improve the pharmacokinetic entities of neprilysin with the specific aims to reduce clearance and improve half-life. To test this we have administrated a single i.v. dose of either 1 mg/kg commercial neprilysin or 1 alternatively 5 mg/kg in-house produced Fc-Nep to mice. At set times after dosing blood samples were drawn from the tail vein or by heart puncture at termination. Upon sampling into tubes containing EDTA the aliquots were put on ice. Plasma was prepared by centrifugation within 15 minutes of sampling (typically 1500 g at 4° C. for 10 min) and immediately frozen. Plasma concentrations of Fc-Nep and neprilysin were determined via immunoassays using either anti-Nep for commercial neprilysin or anti-human IgG for Fc-Nep as capture antibodies while both substances were detected via an anti-Nep antibody. Pharmacokinetic parameters are calculated using a software package (WinNonlin, Pharsight Corporation, USA) and in this example experiment the calculated half-life had increased from about 5 minutes for Nep to about 20 hours for Fc-Nep.

[2] = test system: amyloid β 1-40 peptide; test: Degradation of amyloid β 1-40 peptide by Fc-Neprilysin and Neprilysin in buffer; assay type: biochemical; details: enzyme 2.4 μg/ml, Aβ 1-40 300 nM, 2.5 hours at 37° C., buffer
Protocol: The assay is measuring the remaining amyloid β 1-40 peptide (Bachem) concentration following its incubation in the presence of Neprilysin (R&D Systems) or Fc-Neprilysin with or without Neprilysin inhibitor. 100 μl of reaction mixture containing amyloid β 1-40 peptide (final concentrations, 300, 30 or 3 nM) and/or Neprilysin (2.4 μg/ml), and/or Fc-Neprilysin construct (2.4 μg/ml), and/or Phosphoramidone (10 μM) was incubated in a round bottom 96-well polypropylene plate at 37° C. for 2.5 hours. Following incubation, 10 μl of reaction mixture was transferred into Thermo-Fast© 96-well PCR plate (Abgene, UK) containing 10 μl of Standard Diluent (Gyros AB). Amyloid β 1-40 concentration was determined using Gyrolab Workstation LIF system. Biotinylated anti-amyloid β antibodies (6E10; final concentration 50 μg/ml; Signet) were used as capturing antibodies and polyclonal anti-human amyloid β antibodies (44-348; Biosource) labeled with Alexa Fluor 647 dye (Molecular probes) were used as detection antibodies. Amyloid β 1-40 peptide concentration measurement performed according to the manufacturers protocol using Gyrolab Bioaffy™ Software Package Version 1.8 (Gyros AB). Amyloid β 1-40 peptide degradation by Neprilysin was calculated as a percentage of Amyloid β 1-40 peptide left after incubation in the presence of Neprilysin compared to the amyloid β 1-40 peptide concentration in the absence of Neprilysin.

[3] = test system: amyloid β peptide 1-40 (Aβ40); test: Ex-vivo degradation of Aβ40 in guinea pig plasma; assay type: biochemical; details: 5 μg/ml, 4 hours, 37° C.
Protocol: Degradation of amyloid β peptide 1-40 (Aβ40) and amyloid β peptide 1-42 (Aβ42) by neprilysin was investigated using heparinized plasma from male Dunkin Hartley guinea pigs, weighing 250-300 g (HBLidkoping ka). Blood was withdrawn from anaesthetized guinea pigs by heart puncture. The blood were collected into prechilled heparin-plasma tubes and centrifuged for 10 min at 4° C. at 3000×g within 20 minutes of sampling. Plasma samples were transferred to pre-chilled polypropylene tubes and immediately frozen on dry ice and stored at −70° C. prior to use. The experiments were performed on a pool of plasma from seven guinea pigs. His-Fc-Nep (6 μg/ml or 208 μg/ml) or 5 μg/ml recombinant human Neprilysin (R&D systems) with corresponding vehicles (50 mM Tris-HCl, 150 mM NaCl pH 7.5 or 25 mM Tris-HCl, 0.1 M NaCl pH 8.0) were incubated with a pool of plasma in presence or absence of 10 μM phosphoramidon (BIOMOL) at 37° C. for 0 and 4 h. A final concentration of 4.7 mM EDTA was added into the tubes before the amount of Aβ40 and Aβ42 was analysed using a commercial ELISA kit obtained from Biosource (Aβ1-40) or Innogenetics (Aβ1-42).

[4] = test system: amyloid β peptide 1-40 (Aβ40); test: Degradation of Aβ40 in human plasma (Example 18); assay type: biochemical; details: 5 μg/ml, 4 hours, 37° C.
Protocol: Blood from eight individuals (5 females and 3 males) were collected into pre-chilled heparin-plasma tubes at the healthcare centre (AstraZeneca) at two different time points. Plasma was prepared by centrifugation for 20 min at 4° C. at 2500×g within 30 minutes of sampling. Plasma samples were transferred to pre-chilled polypropylene tubes and immediately frozen and stored at −70° C. prior to use. His-Fc-Nep (6 μg/ml) or 5 μg/ml recombinant human Neprilysin (R&D systems) with corresponding vehicles (50 mM Tris-HCl, 150 mM NaCl pH 7.5 or 25 mM Tris-HCl, 0.1 M NaCl pH 8.0) in presence or absence of 10 μM phosphoramidon was incubated with a pool of plasma at 37° C. for 0 and 4 h. A final concentration of 4.7 mM EDTA was added into the tubes before the amount of Aβ40 was analysed using a commercial ELISA kit obtained from Biosource. His-Fc-Nep (6 μg/ml) and commercial human recombinant neprilysin (5 μg/ml) degraded Aβ40 with 33% and 70%, respectively, compared to vehicle after 4 hours incubation at 37° C. The Aβ40 levels were unaffected after addition of 10 μM phosphoramidon (FIG. 4).

[5] = Pharmacokinetics of Fc-Nep and in-house produced Neprilysin, single i.v. dose (Example 27); assay type: in vivo; details: mice, single i.v. dose 10 or 50 nmol enzyme/kg
Protocol: The Fc-Nep fusion protein was developed to improve the pharmacokinetic entities of neprilysin with the specific aims to reduce clearance and improve half-life. To test this we have administrated a single i.v. dose of 10 or 50 nmol enzyme/kg body weight neprilysin (Nep) or Fc-Nep (1 and 5 mg/kg) to mice. At set times the dose blood samples were drawn from the tail vein or by heart puncture at termination. Upon sampling into tubes containing EDTA the aliquots were put on ice. Plasma was prepared by centrifugation within 15 minutes of sampling (typically 1500 g at 4° C. for 10 min) and immediately frozen. Plasma concentrations of Nep and Fc-Nep were determined via immunoassays using either anti-Nep for Nep or anti-human IgG for Fc-Nep as capture antibodies while both substances were detected via an anti-Nep antibody. Pharmacokinetic parameters are calculated using a software package (WinNonlin, Pharsight Corporation, USA) and in this example experiment the calculated half-life had increased from about 1 day for Nep to about 2.5 weeks for Fc-Nep.

B1: Recombinant human Neprilysin: commercially available Recombinant Human Neprilysin (R&D Systems), positive control (protein)
chain: YDDGICKSSDCIKSAARLIQNMDATTEPCTDFFKYACGGWLKRNVIPETSSRYGNFDILRDELEVVLKDVLQEPKTEDIVAVQKAKALYRSCINESAIDSRGGEPLLKLLPDIYGWPVATENWEQKYGASWTAEKAIAQLNSKYGKKVLINLFVGTDDKNSVNHVIHIDQPRLGLPSRDYYECTGIYKEACTAYVDFMISVARLIRQEERLPIDENQLALEMNKVMELEKEIANATAKPEDRNDPMLLYNKMTLAQIQNNFSLEINGKPFSWLNFTNEIMSTVNISITNEEDVVVYAPEYLTKLKPILTKYSARDLQNLMSWRFIMDLVSSLSRTYKESRNAFRKALYGTTSETATWRRCANYVNGNMENAVGRLYVEAAFAGESKHVVEDLIAQIREVFIQTLDDLTWMDAETKKRAEEKALAIKERIGYPDDIVSNDNKLNNEYLELNYKEDEYFENIIQNLKFSQSKQLKKLREKVDKDEWISGAAVVNAFYSSGRNQIVFPAGILQPPFFSAQQSNSLNYGGIGMVIGHEITHGFDDNGRNFNKDGDLVDWWTQQSASNFKEQSQCMVYQYGNFSWDLAGGQHLNGINTLGENIADNGGLGQAYRAYQNYIKKNGEEKLLPGLDLNHKQLFFLNFAQVWCGTYRPEYAVNSIKTDVHSPGNFRIIGTLQNSAEFSEAFHCRKNSYMNPEKKCRVW
[1]
  calculated half-life: about 5 minutes
[2]
  Amyloid β 1-40 peptide degraded: 64%
[3]
  Aβ40 degraded compared to vehicle: 49%
[4]
  Aβ40 degraded compared to vehicle: 70%

B2: Nep: in-house produced Neprilysin (extra-cellular domain only), without Fc (protein, UniProt P08473 52-750, looked up)
extracellular domain: B1 chain
modifications: extracellular domain
notes: in-house produced Neprilysin (extra-cellular domain only), without Fc
[5]
  calculated half-life: about 1 day
